Key:
α1-antitrypsin = α1-antitrypsin (UniProt P01009)
Chain of α1-antitrypsin (P01009 whole entry, looked up): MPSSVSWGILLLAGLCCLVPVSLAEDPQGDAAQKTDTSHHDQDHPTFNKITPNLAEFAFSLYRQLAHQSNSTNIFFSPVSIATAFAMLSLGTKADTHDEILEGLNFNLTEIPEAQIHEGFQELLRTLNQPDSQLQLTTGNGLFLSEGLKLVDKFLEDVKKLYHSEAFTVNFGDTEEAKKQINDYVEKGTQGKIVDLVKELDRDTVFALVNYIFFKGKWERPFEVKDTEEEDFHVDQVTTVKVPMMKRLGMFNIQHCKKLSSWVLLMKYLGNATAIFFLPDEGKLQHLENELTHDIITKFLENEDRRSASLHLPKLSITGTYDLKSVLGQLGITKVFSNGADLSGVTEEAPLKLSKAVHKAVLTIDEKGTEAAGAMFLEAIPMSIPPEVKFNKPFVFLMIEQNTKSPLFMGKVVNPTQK

Chain of active MMP9 (chain, as listed by the source): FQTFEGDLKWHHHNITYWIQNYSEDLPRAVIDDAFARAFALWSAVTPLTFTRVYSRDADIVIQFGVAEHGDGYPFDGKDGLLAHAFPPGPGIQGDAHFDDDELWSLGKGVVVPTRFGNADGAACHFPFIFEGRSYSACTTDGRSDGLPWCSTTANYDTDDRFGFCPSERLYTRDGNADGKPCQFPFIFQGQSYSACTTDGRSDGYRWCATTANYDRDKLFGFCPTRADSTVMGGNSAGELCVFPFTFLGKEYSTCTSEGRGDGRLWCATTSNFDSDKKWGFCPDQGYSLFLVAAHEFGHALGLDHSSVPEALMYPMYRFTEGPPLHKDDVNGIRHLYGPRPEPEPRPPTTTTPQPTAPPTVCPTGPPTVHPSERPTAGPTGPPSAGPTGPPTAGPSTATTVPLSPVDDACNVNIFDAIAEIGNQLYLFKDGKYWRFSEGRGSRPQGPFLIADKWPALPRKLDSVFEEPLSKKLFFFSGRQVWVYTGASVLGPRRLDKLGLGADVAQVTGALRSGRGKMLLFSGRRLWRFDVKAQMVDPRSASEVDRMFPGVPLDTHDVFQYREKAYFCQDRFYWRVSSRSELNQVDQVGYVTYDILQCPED
Chain of active MMP3 (chain, as listed by the source): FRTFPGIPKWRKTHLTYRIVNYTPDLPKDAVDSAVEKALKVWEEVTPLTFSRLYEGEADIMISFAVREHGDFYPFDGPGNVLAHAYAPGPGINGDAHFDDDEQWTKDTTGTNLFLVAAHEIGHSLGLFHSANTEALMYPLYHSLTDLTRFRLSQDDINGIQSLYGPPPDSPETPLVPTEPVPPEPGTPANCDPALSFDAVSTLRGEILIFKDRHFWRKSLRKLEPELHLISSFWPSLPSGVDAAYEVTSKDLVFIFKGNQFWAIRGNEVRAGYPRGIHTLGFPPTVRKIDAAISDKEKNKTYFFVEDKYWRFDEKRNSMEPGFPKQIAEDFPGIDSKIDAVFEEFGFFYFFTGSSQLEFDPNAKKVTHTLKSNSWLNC

| Substance | activation of pro-MMP9 (appearance of the active MMP9 fragment by Li-Cor Western blot and increase in gelatinolytic activity) (Pro-MMP9) | cleavage of α1-antitrypsin by Western blot (α1-antitrypsin) |
| --- | --- | --- |
| active Pseudomonas elastase | Both proteases activated MMP9 in a dose-dependent manner |  |
| active MMP9 |  | In the presence of active MMP9 alone, α1-antitrypsin was cleaved from the active form to the inactive form |
| active MMP3 | Both proteases activated MMP9 in a dose-dependent manner |  |

Source: patent US20170306050
